Results as given in patent publication US20220356229A1.
Substitutions are numbered along the chain they refer to. Values joined by “and” are separate entries in the source; they are usually repeats but may differ in a detail not shown here. Equal entries are not always repeated.

How the values were obtained:
[1] = biological target: T1, SARS-CoV-2 Spike (S) protein, wild type, full length (SARS-CoV-2), P0DTC2; conditions: remark: other sources report otherwise
[2] = biological target: SARS-CoV-2 full length Spike protein, wild type (SARS-CoV-2), P0DTC2; conditions: remark: other sources report otherwise
[3] = biological target: T1, SARS-CoV-2 Spike (S) protein, wild …; conditions: remark: other sources report otherwise; remark: listed apart in the source
[4] = biological target: full length Spike of WIV1 (WIV1)

B1: antibody 322 (antibody, V domains shown)
VH: EVQLVESGGGLVQPGGSLRLSCAASGFTFSSYWMSWVRQAPGKGLEWVANIKQDGSEKYYVDSVKGRFTISRDNAKNSLYLQMNSLRAEDTAVYYCARDEDVAAALDYWGQGTLVTVSS
VL: SYVLTQPPSVSVAPGKTARITCGGNNIGSKSVHWYQQKPGQAPVLVIYYDSDRPSGIPERFSGSNSGNTATLTISRVEAGDEADYYCQVWDSSSDHPERVFGGGTKLTVL
**Q.** For B1, which fold over isotype (median fluorescence intensity) (fold over isotype) [1] is on record?
**A.** Its fold over isotype (median fluorescence intensity) (fold over isotype) is 1.65.

B2: antibody 325 (antibody, V domains shown)
VH: QVQLQESGPGLVKPSQTLSLTCTVSGGSISGGGYYWSWIRQHPGKGLEWIGYIYYSGSTYYNPSLQSRVTISVDTSKNQFSLKLSSVTAADTAVYYCARVGTSSVWYFDYWGQGTLVTVSS
VL: QSALTQPRSVSGSPGQSVTISCTGTSSDVGGYNYVSWYQQHPGKAPKLMIYDVTKRPSGVPDRFSGSKSGNTASLTISGLQAEDEADYYCSSYAGSWVFGGGTKLTVL
**Q.** B2 was tested. Which fold over isotype (median fluorescence intensity) (fold over isotype) [1] did it give?
**A.** Its fold over isotype (median fluorescence intensity) (fold over isotype) is 1.08.

B3: antibody 362 (antibody, V domains shown)
VH: QVQLVESGGGVVQPGRSLRLSCAASGFNLSNYAMHWVRQASGKGLEWVSLISYDGSVKYYTDSVKGRFTVSGDNSKNTLFLQMNSLRPDDSALYYCVRGGVSGPNSFDMWGQGTTVTVSS
VL: DVVMTQSPLSLPVTLGQPATISCRSSQSLVYSDGNTYVNWFQQRPGQSPRRLIYQVSIRASGVPDRFSGSGSGTDFALKISRVEAEDVGVYYCMQGTHWPVTFGQGTKVEIK
**Q.** B3 was tested. Which bead binding signal (fold over isotype) (fold over isotype) [2] did it give?
**A.** Its bead binding signal (fold over isotype) (fold over isotype) is 503.

**Q.** What about the fold over isotype (median fluorescence intensity) (fold over isotype) [1] of the same binder?
**A.** The fold over isotype (median fluorescence intensity) (fold over isotype) was 9.45.

B4: antibody 493 (antibody, V domains shown)
VH: EVQLVESGGGLIQPGRSLRLSCAASGFTVSITYMSWVRQAPGKGLEWVSLIYSGGSSYYADSVKGRFTISRDNSKNTLYLQMNSLRAEDTAVYYCATTMVRGVIISYYYGMDVWGQGTTVTVSS
VL: QSALTQPASVSGSPGQSITISCTGTSSDVGGYNYVSWYQQHPGKAPKLMIYEVSNRPSGVSNRFSGSKSGNTASLTISGLQAEDEADYYCSSYTSSSTLVFGGGTKLTVL
**Q.** Which median fluorescence, fold over isotype control (fold over isotype) [1] does the source give for B4 here?
**A.** Its median fluorescence, fold over isotype control (fold over isotype) is 1.1.

B5: antibody 521 (antibody, V domains shown)
VH: QVQLVESGGGVVQPGRSLRLSCAASGFTFSSYGMHWVRQAPGKGLEWVAVIWYDGSNKYYADSVKGRFTISRDNSKNTLYLQMNSLRAEDTAVYYCAREGNDYGDYGEWELLGYFDYWGQGTLVTVSS
VL: SYELTQPPSVSVSPGQTARITCSGDALPKKYAYWYQQKSGQAPVLVIYEDSKRPSGIPERFSGSSSGTMATLTISGAQVEDEADYYCYSTDSSGNHRRVFGGGTKLTVL
**Q.** Which median fluorescence, fold over isotype control (fold over isotype) [1] does the source give for B5 here?
**A.** The median fluorescence, fold over isotype control (fold over isotype) was 0.86.

B6: antibody 315 (antibody, V domains shown)
VH: QVQLVQSGSELKKPGASVKLSCQASGYSFTNHAMNWVRQAPGQGLEWMGWINTNTGNPTYAQGFTGRFVFSLDTSVSTTYLHISSLKAEDTAVYYCARASARPGVATNLDFWGQGTLVVVSS
VL: DIQMTQSPSSLSASVGDRVTITCRASQNIDNYLNWYQQKPGKAPKLLIYAASRLHSGVPSRFSGSGSGTDFTLIISSLQPEDLATYYCQQSYSNPLTFGPGTKVDIR
**Q.** With B6 as the binder, how does the bead binding signal (fold over isotype) (fold over isotype) [2] read?
**A.** Its bead binding signal (fold over isotype) (fold over isotype) is 592.

B7: antibody 337 (antibody, V domains shown)
VH: QVQLVESGGGVVQPGRSLRLSCAASGFTFSSYGMHWVRQAPGKGLEWVAIIWYDGSNKYYADSVKGRFTISRDNSKNTLYLQMNSLRAEDTAVYYCAKDTGGYCSGGSCYPESYFDYWGQGTLVTVSS
VL: SYVLTQPPSVSVAPGKTARITCGGNNIGSKSVHWYQQKPGQAPVLVIYYDSDRPSGIPERFSGSNSGNTATLTINRVEAGDEADYYCQVWDGSSDHLYVFGTGTKVTVL
**Q.** B7 was tested. Which bead binding signal (fold over isotype) (fold over isotype) [2] did it give?
**A.** The bead binding signal (fold over isotype) (fold over isotype) was 756.

B8: antibody 259 (antibody, V domains shown)
VH: EVQLVQSGAEVKKPGATVKISCKVSGYTFTDYYMHWVQQAPGKGLEWMGLVDPEDGETIYAEKFQGRVTITADTSTDTAYMELSSLRSEDTAVYYCATDLLSWKLYCSGGSCPQMDVWGQGTTVTVSS
VL: DIQMTQSPSSLSASVGDRVTITCRASQGIRNDLGWYQQKPGKAPKRLIYAASSLQSGVPSRFSGSGSGTEFTLTISSLQPEDFATYYCLQHNSYPQTFGQGTKLEIK
**Q.** B8 was tested. Which bead binding signal (fold over isotype) (fold over isotype) [3] did it give?
**A.** Its bead binding signal (fold over isotype) (fold over isotype) is 275.

B9: anti-SARS-CoV-2 antibody 304 (antibody, V domains shown)
VH: EVQLLESGGGLVQPGGSLRLSCAASGFTFSTYAMSWVRQAPGKGLEWVSAISGSGGSTYYADSVKGRFTISRDNSKNTLYLQMNSLRAEDTAVYYCASGYSPDYWGQGTLVTVSS
VL: B8 VL with D1A, R46L, E70D, H91D, N92Y, S93N, Q96R, L104V
**Q.** B9 was tested. Which fold over isotype control (median fluorescence) (fold over isotype) [4] did it give?
**A.** The fold over isotype control (median fluorescence) (fold over isotype) was 1.01 and 1.04.

B10: anti-SARS-CoV-2 antibody 311 (antibody, V domains shown)
VH: QVQLQESGPGLVKPSETLSLTCTVSGYSISSGYYWGWIRQPPGKGLEWIGSIYHSGSTYYNPSLKSRVTISVDTSKNQFSLKLSSVTAADTAVYYCAREETLGSSWYESYIDYWGQGTLVTVSS
VL: B7 VL with N75S, G92S, L97P, Y98R, T102G, V106L
**Q.** Which fold over isotype control (median fluorescence) (fold over isotype) [4] does the source give for B10 here?
**A.** The fold over isotype control (median fluorescence) (fold over isotype) was 1.11 and 1.14.

B11: anti-SARS-CoV-2 antibody 315 (antibody, V domains shown)
VH: B6 VH
VL: B6 VL
**Q.** With B11 as the binder, how does the fold over isotype control (median fluorescence) (fold over isotype) [4] read?
**A.** The fold over isotype control (median fluorescence) (fold over isotype) was 1.09.

B12: anti-SARS-CoV-2 antibody 316 (antibody, V domains shown)
VH: QVHLVESGGGVVQPGRSLRLSCAASGFTLTAYAMHWVRQAPGKRLEWVALISYDGSVKKYADSVKGRITVSGDTSTNTLHLQMNSLRADDTAVYYCVRGGVSGPNSFDLWGQGTMVTVSS
VL: B3 VL with T20S, I21M, V30E, Q42H, Q55K, I58Y, A60D, A77T, K79Q, V90I
**Q.** How did the fold over isotype control (median fluorescence) (fold over isotype) [4] turn out when B12 was run?
**A.** Its fold over isotype control (median fluorescence) (fold over isotype) is 93.8.

B13: anti-SARS-CoV-2 antibody 318 (antibody, V domains shown)
VH: QVQLVESGGGVVPPGRSLSLPCAASGFSFSAYAMHWLRQAPGKGLEWVAVISYDGTVKYVADSVRGRFTISRDNSNNTLYLQMTSLRSDDTAVYYCARDLGALAAAPTVYFVHWGQGTLVTVSS
VL: SYVLTQPPSVSVAPGKTATITCAGEDIGRKSVHWYQQKPGQAPVLVIFYYSDRPSGIPDRFSGSVSGNTATLTIGRVEAGDEADYFCQVWDRTTNHVIFGGGTKVTVL
**Q.** For B13, which fold over isotype control (median fluorescence) (fold over isotype) [4] is on record?
**A.** The fold over isotype control (median fluorescence) (fold over isotype) was 291 and 166.

B14: anti-SARS-CoV-2 antibody 319 (antibody, V domains shown)
VH: B3 VH with V57I
VL: B3 VL with T20S
**Q.** With B14 as the binder, how does the fold over isotype control (median fluorescence) (fold over isotype) [4] read?
**A.** The fold over isotype control (median fluorescence) (fold over isotype) was 96.2.

B15: antibody 390 (antibody, V domains shown)
VH: B4 VH with R16G, I31S, T32N, L50I, S57T, T90S, Y94S, V103L
VL: B4 VL
**Q.** Which fold over isotype control (median fluorescence) (fold over isotype) [2] does the source give for B15 here?
**A.** Its fold over isotype control (median fluorescence) (fold over isotype) is 637 and 341 and 318.

B16: antibody 392 (antibody, V domains shown)
VH: QVQLQESGPGLVKPSGTLSLTCAVSGGSISSSNWWSWVRQPPGKGLEWIGEIYHSGSTNYNPSLKSRVTISVDKSKNQFSLKLSSVTAADTAVYYCARGWRATLYGMDVWGQGTTVTVSS
VL: B4 VL with G31S, Y34L, N55K, S91C, T94A, S95G, L99W
**Q.** For B16, which fold over isotype control (median fluorescence) (fold over isotype) [2] is on record?
**A.** Its fold over isotype control (median fluorescence) (fold over isotype) is 509.

B17: antibody 396 (antibody, V domains shown)
VH: QVQLQQWGAGLLKPSETLSLTCAVYGGSFSGYYWSWIRQPPGKGLEWIGEIIHSGSTNYNPSLKSRVTISVDTSKNQFSLKLSSVTAADTAVYYSARRTGLLWFREGSYYFDYWGQGTLVTVSS
VL: B8 VL with Q96L, Q100G, L104V
**Q.** B17 was tested. Which fold over isotype control (median fluorescence) (fold over isotype) [2] did it give?
**A.** The fold over isotype control (median fluorescence) (fold over isotype) was 553.

B18: antibody 413 (antibody, V domains shown)
VH: EVQLVESGGGLIQPGGSLRLSCAASGFTVSGNYMNWVRQAPGKGLEWVSVIYSGGSTYYADSVKGRFTISRANSKNTLYLQMNSLRAEDTAVYYCASTSLVRGLIILYYYGMDVWGQGTTVTVSS
VL: B4 VL
**Q.** With B18 as the binder, how does the median fluorescence fold over isotype (fold over isotype control) [2] read?
**A.** Its median fluorescence fold over isotype (fold over isotype control) is 969 and 367 and 416.

B19: antibody 416 (antibody, V domains shown)
VH: EVQLVESGGGLVQPGRSLRLSCAASGFTFDDYAMHWVRQAPGKGLEWVSGISWNSGSIGYADSVKGRFTISRDNAKNSLYLQMNSLRAEDTALYYCAKDLAWLSGGMDVWGQGTTVTVSS
VL: not shown
**Q.** For B19, which median fluorescence fold over isotype (fold over isotype control) [2] is on record?
**A.** Its median fluorescence fold over isotype (fold over isotype control) is 110.

B20: antibody 267 (antibody, V domains shown)
VH: EVHLVQSGAEMKKPGATVKISCKVSGNTFIDHYIQWVQQAPGKGFEWMGLVDPEDGETIYAEKFQGRVTITADTSRDTAYMELSSLKSEDTAVYYCGTHGDYLDYWGQGTLVTVSS
VL: FYELTQPSSVSVSPGQTALITCSGDVVAKKYARWFQQKAGQAPVLVIYKDTERPSGIPERISGSSSGTTVTLTISGAQVEDEADYYCYSATDNNLVFGGGTKVTVL
**Q.** With B20 as the binder, how does the bead binding signal (fold over isotype) (fold over isotype) [3] read?
**A.** Its bead binding signal (fold over isotype) (fold over isotype) is 312.

B21: antibody 452 (antibody, V domains shown)
VH: QVQLVESGGGLVKPGGSLRLSCAASGFTFSDYYLSWIRQAPGKGLEWVSYISSSGSNIYYADSVKGRFTISRDNAKNSLYLQMNSLRADDTAVFYCARAGRYCSGGSCRVEYFQHWGQGTLVTVSS
VL: SYELTQPPSVSVSPGQTARITCSGDALPKQYAYWYQQKPGQAPVLVIYKDNERPSGIPERFSGSSSGTTATLTISGVQAEDEADYYCQSADSSGTVVFGGGTKLTVL
**Q.** For B21, which median fluorescence fold over isotype (fold over isotype control) [2] is on record?
**A.** The median fluorescence fold over isotype (fold over isotype control) was 854.
